B1: library; numbered along this chain (parent)
chain: MRKPRAAVGSGHRKQAASQEGRQKHAKNNSQAKPSACDGLARQPEEVVLQASVSSYHLFRDVAEVTAFRGSLLSWYDQEKRDLPWRRRAEDEMDLDRRAYAVWVSEVMLQQTQVATVINYYTGWMQKWPTLQDLASASLEEVNQLWAGLGYYSRGRRLQEGARKVVEELGGHMPRTAETLQQLLPGVGRYTAGAIASIAFGQATGVVDGNVARVLCRVRAIGADPSSTLVSQQLWGLAQQLVDPARPGDFNQAAMELGATVCTPQRPLCSQCPVESLCRARQRVEQEQLLASGSLSGSPDVEECAPNTGQCHLCLPPSEPWDQTLGVVNFPRKASRKPPREESSATCVLEQPGALGAQILLVQRPNSGLLAGLWEFPSVTWEPSEQLQRKALLQELQRWAGPLPATHLRHLGEVVHTFSHIKLTYQVYGLALEGQTPVTTVPPGARWLTQEEFHTAAVSTAMKKVFRVYQGQQPGTCMGSKRSQVSSPCSRKKPRMGQQVLDNFFRSHISTDAHSLNSAAQ

Variants of: B1
Assay: 8OG:A repair function score (normalized; synonymous = 0, nonsense = -1) (normalized log-likelihood score); higher = more repair activity (WT-like)
Settings: with 8OG:A DNA repair reporter (GFP) in HEK-293 MUTYH KO cells
Procedure, shortened: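 With 10 pg/ml doxycycline, MUTYH knockout HEK-293 cells carrying lentiviral MUTYH cDNA NNN codon-scan libraries were co-transfected with mCherry and an 8OG:A GFP repair reporter. Viable mCherry+ cells were sorted into GFP+ (repair) and GFP− bins at 72 h, three replicates per tile, and tile amplicons were sequenced. Per-tile Rosace fitness scores were then normalized into a repair function score anchored on synonymous and nonsense distributions. Medians were fixed at 0 for synonymous and -1 for nonsense, excluding variants under 300 counts per million at the start.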

| Variant | 8OG:A repair function score |
| --- | --- |
| MRKPRAAVGSGHRKQAASQEGRQKHAKNNSQAKPSACDGLARQPEEVVLQASVSSYHLFRDVAEVTAFRGSLLSWYDQEKRDLPWRRRAEDEMDLDRRAYAVWVSEVMLQQTQVATVINYYTGWMQKWPTLQDLASASLEEVNQLWAGLGYYSRGRRLQEGARKVVEELGGHMPRTAETLQQLLPGVGQYTAGAIASIAFGQATGVVDGNVARVLCRVRAIGADPSSTLVSQQLWGLAQQLVDPARPGDFNQAAMELGATVCTPQRPLCSQCPVESLCRARQRVEQEQLLASGSLSGSPDVEECAPNTGQCHLCLPPSEPWDQTLGVVNFPRKASRKPPREESSATCVLEQPGALGAQILLVQRPNSGLLAGLWEFPSVTWEPSEQLQRKALLQELQRWAGPLPATHLRHLGEVVHTFSHIKLTYQVYGLALEGQTPVTTVPPGARWLTQEEFHTAAVSTAMKKVFRVYQGQQPGTCMGSKRSQVSSPCSRKKPRMGQQVLDNFFRSHISTDAHSLNSAAQ [R189Q] | -0.208 |
| MRKPRAAVGSGHRKQAASQEGRQKHAKNNSQAKPSACDGLARQPEEVVLQASVSSYHLFRDVAEVTAFRGSLLSWYDQEKRDLPWRRRAEDEMDLDRRAYAVWVSEVMLQQTQVATVINYYTGWMQKWPTLQDLASASLEEVNQLWAGLGYYSRGRRLQEGARKVVEELGGHMPRTAETLQQLLPGVGRYTAGAIASIAFGQATGVVDGNVARVLCRVRAIGADPSSTTVSQQLWGLAQQLVDPARPGDFNQAAMELGATVCTPQRPLCSQCPVESLCRARQRVEQEQLLASGSLSGSPDVEECAPNTGQCHLCLPPSEPWDQTLGVVNFPRKASRKPPREESSATCVLEQPGALGAQILLVQRPNSGLLAGLWEFPSVTWEPSEQLQRKALLQELQRWAGPLPATHLRHLGEVVHTFSHIKLTYQVYGLALEGQTPVTTVPPGARWLTQEEFHTAAVSTAMKKVFRVYQGQQPGTCMGSKRSQVSSPCSRKKPRMGQQVLDNFFRSHISTDAHSLNSAAQ [L229T] | -0.124 |
| MRKPRAAVGSGHRKQAASQEGRQKHAKNNSQAKPSACDGLARQPEEVVLQASVSSYHLFRDVAEVTAFRGSLLSWYDQEKRDLPWRRRAEDEMDLDRRAYAVWVSEVMRQQTQVATVINYYTGWMQKWPTLQDLASASLEEVNQLWAGLGYYSRGRRLQEGARKVVEELGGHMPRTAETLQQLLPGVGRYTAGAIASIAFGQATGVVDGNVARVLCRVRAIGADPSSTLVSQQLWGLAQQLVDPARPGDFNQAAMELGATVCTPQRPLCSQCPVESLCRARQRVEQEQLLASGSLSGSPDVEECAPNTGQCHLCLPPSEPWDQTLGVVNFPRKASRKPPREESSATCVLEQPGALGAQILLVQRPNSGLLAGLWEFPSVTWEPSEQLQRKALLQELQRWAGPLPATHLRHLGEVVHTFSHIKLTYQVYGLALEGQTPVTTVPPGARWLTQEEFHTAAVSTAMKKVFRVYQGQQPGTCMGSKRSQVSSPCSRKKPRMGQQVLDNFFRSHISTDAHSLNSAAQ [L109R] | -1.05 |
| MRKPRAAVGSGHRKQAASQEGRQKHAKNNSQAKPSACDGLARQPEEVVLQASVSSYHLFRDVAEVTAFRGSLLSWYDQEKRDLPWRRRAEDEMDLDRRAYAVWVSEVMLQQTQVATVINYYTGWMQKWPTLQDLASASLEEVNQLWAGLGYYSRGRRLQEGARKVVEELGGHMPRTAETLQQLLPGVGRYTAGAIASIAFGQATGVVDGNVARVLCRVRAIGADPSSTLVSQQLWGLAQQLVDPARPGDFNQAAMELGATVCTPQRPLCSQCPVESLCRARQRVEQEQLLASGSLSGSPDVEECAPNTGQCHLCLPPSEPWDQTLGVVNFPRKASRKPPREESSATCVLEQPGALGAQILLVQRPNSGLLAGLWEFPSVTWEPSEQLQRKALLQELQRWAGPLPATHLRHLGEVVHTFSHIKLTYQVYGLALEGQTPVTTVPPGARWLTQEEFHTAAVSTAMKKVFRVYQGQQPGTCMGSKRSQVSSPCSHKKPRMGQQVLDNFFRSHISTDAHSLNSAAQ [R491H] | 0.0282 |
| MRKPRAAVGSGHRKQAASQEGRQKHAKNNSQAKPSACDGLARQPEEVVLQASVSSYHLFRDVAEVTAFRGSLLSWYDQEKRDLPWRRRAEDEMDLDRRAYAVWVSEVMLQQTQVATVINYYTGWMQKWPTLQDLASASLEEVNQLWAGLGYYSRGRRLQEGARKVVEELGGHMPRTAETLQQLLPGVGRYTAGAIASIAFGQATGVVDGNVARVLCRVRAIGADPSSTLVSQQLWGLAQQLVDPARPGDFNQAAMELGATVCTPQRPLCSQCPVESLCRARQRVEQEQLLASGSLSGSPDVEECAPNTGQCHLCLPPSEPWDQTLGVVNFPRKASRKPPREESSATCVLEQPGALGAQILLVQRPNSGLLAGLWEFPSVTWEPSEQLQRKALLQELQRWAGPLPATHLRHLGEVVHTFSHIKLTYQVYGLALEGQTPVTTVYPGARWLTQEEFHTAAVSTAMKKVFRVYQGQQPGTCMGSKRSQVSSPCSRKKPRMGQQVLDNFFRSHISTDAHSLNSAAQ [P442Y] | -0.28 |
| MRKPRAAVGSGHRKQAASQEGRQKHAKNNSQAKPSACDGLARQPEEVVLQASVSSYHLFRDVAEVTAFRGSLLSWYDQEKRDLPWRRRAEDEMDLDRRAYAVWVSEVMLQQTQVATVINYYTGWMQKWPTLQDLASASLEEVNQLWAGLGYYSRGRRLQEGARKVVEELGGHMPRTAETLQQLLPGVGRYTAGAIASIAFGQATGVVDGNVARVLCRVRAIGADPSSTLVSQQLWGLAQQLVDPARPGDFNQAAMELTATVCTPQRPLCSQCPVESLCRARQRVEQEQLLASGSLSGSPDVEECAPNTGQCHLCLPPSEPWDQTLGVVNFPRKASRKPPREESSATCVLEQPGALGAQILLVQRPNSGLLAGLWEFPSVTWEPSEQLQRKALLQELQRWAGPLPATHLRHLGEVVHTFSHIKLTYQVYGLALEGQTPVTTVPPGARWLTQEEFHTAAVSTAMKKVFRVYQGQQPGTCMGSKRSQVSSPCSRKKPRMGQQVLDNFFRSHISTDAHSLNSAAQ [G258T] | -1.21 |
| MRKPRAAVGSGHRKQAASQEGRQKHAKNNSQAKPSACDGLARQPEEVVLQASVSSYHLFRDVAEVTAFRGSLLSWYDQEKRDLPWRRRAEDEMDLDRRAYAVWVSEVMLQQTQVATVINYYTGWMQKWPTLQDLASASLEEVNQLWAGLGYYSRGRRLQEGARKVVEELGGHMPRTAETLQQLLPGVGRYTAGAIASIAFGQATGVVDGNVARVLCRVRAIGADPSSTLVSQQLWGLAQQLVDPARPGDFNQAAMELGATVCTPQRPLCSQCPVESLCRARQRVEQEQLLASGSLSGSPDVEECAPNTGQCHLCLPPSEPWDQTLGVVNFPRKASRKPPREESSATCVLEQPGALGAQIMLVQRPNSGLLAGLWEFPSVTWEPSEQLQRKALLQELQRWAGPLPATHLRHLGEVVHTFSHIKLTYQVYGLALEGQTPVTTVPPGARWLTQEEFHTAAVSTAMKKVFRVYQGQQPGTCMGSKRSQVSSPCSRKKPRMGQQVLDNFFRSHISTDAHSLNSAAQ [L360M] | -0.352 |
| MRKPRAAVGSGHRKQAASQEGRQKHAKNNSQAKPSACDGLARQPEEVVLQASVSSYHLFRDVAEVTAFRGSLLSWYDQEKRDLPWRRRAEDEMDLDRRAYAVWVSEVMLQQTQVATVINYYTGWMQKWPTLQDLASASLEEVNQLWAGLGYYSRGRRLQEGARKVVEELGGHMPRTAETLQQLLPGVGRYTAGAIASIAFGQATGVVDGNVARVLCRVRAIGADPSSTLVSQQLWGLAQQLVDPARPGDFNQAAMELGATVCTPQRPLCSQCPVESLCRARQRVEQEQLLASGSLSGSPDVEECAPNTGQCHLCLPPSEPWDQTLGVVNFPRKASRKPPREESSATCVLEQPGALGAQILLVQRPNSGLLAGLWEFPSVTWEPSEQLQRKALLQELQRWAGPLPATHLRHLGEVVHTFSHIKLTYQVYGLALEGQTPVTTVPPGARWLTQEEFHTAAVSTAMKKVFRVYQGQQPGTCGGSKRSQVSSPCSRKKPRMGQQVLDNFFRSHISTDAHSLNSAAQ [M478G] | 0.0207 |
| MRKPRAAVGSGHRKQAASQEGRQKHAKNNSQAKPSACDGLARQPEEVVLQASVSSYHLFRDVAEVTAFRGSLLSWYDQEKRDLPWRRRAEDEMDLDRRAYAVWVSEVMLQQTQVATVINYYTGWMQKWPTLQDLASASLEEVNQLWAGLGYYSRGRRLQEGARKVVEELGGHMPRTAETLQQLLPGVGRYIAGAIASIAFGQATGVVDGNVARVLCRVRAIGADPSSTLVSQQLWGLAQQLVDPARPGDFNQAAMELGATVCTPQRPLCSQCPVESLCRARQRVEQEQLLASGSLSGSPDVEECAPNTGQCHLCLPPSEPWDQTLGVVNFPRKASRKPPREESSATCVLEQPGALGAQILLVQRPNSGLLAGLWEFPSVTWEPSEQLQRKALLQELQRWAGPLPATHLRHLGEVVHTFSHIKLTYQVYGLALEGQTPVTTVPPGARWLTQEEFHTAAVSTAMKKVFRVYQGQQPGTCMGSKRSQVSSPCSRKKPRMGQQVLDNFFRSHISTDAHSLNSAAQ [T191I] | -0.0338 |
| MRKPRAAVGSGHRKQAASQEGRQKHAKNNSQAKPSACDGLARQPEEVVLQASVSSYHLFRDVAEVTAFRGSLLSWYDQEKRDLPWRRRAEDEMDLDRRAYAVWVSEVMLQQTQVATVINYYTGWMQKWPTLQDLASASLEEVNQLWAGLGYYSRGRRLQEGARKVVEELGGHMPRTAETLQQLLPGVGRYTAGAIASIAFGQATGVVDGNVARVLCRVRAIGADPSSTLVSQQLWGLAQQLVDPARPGDFNQAAMELGATVCTPQRPLCSQCPVESLCRARQRVEQEQLLASGSLSGSPDVEECAPNTGQCHLCLPPSEPWDQTLGVVNFPRKASRKPPREESSATCVLEQPGALGAQILLVQRPNSGLLAGLWEFPSVTWEPSEQLQRKALLQETQRWAGPLPATHLRHLGEVVHTFSHIKLTYQVYGLALEGQTPVTTVPPGARWLTQEEFHTAAVSTAMKKVFRVYQGQQPGTCMGSKRSQVSSPCSRKKPRMGQQVLDNFFRSHISTDAHSLNSAAQ [L396T] | -0.534 |
| MRKPRAAVGSGHRKQAASQEGRQKHAKNNSQAKPSACDGLARQPEEVVLQASVSSYHLFRDVAEVTAFRGSLLSWYDQEKRDLPWRRRAEDEMDLDRRAYAVWVSEVMLQQTQVATVINYYTGWMQKWPTLQDLASASLEEVNQLWAGLGYYSRGRRLQEGARKVVEELGGHMPRTAETLQQLLPGVGRYTAGAIASIAFGQATGVVDGNVARVLCRVRAIGADPSSTLVSQQLWGLAQQLVDPARPGDFNQAAMELGATVCTPQRPLCSQCPVESLCRARQRVEQEQLLASGSLSGSPDVEECAPNTGQCHLCLPPSEPWDQTLGVVNFPRKASRKPPREESSATCVLMQPGALGAQILLVQRPNSGLLAGLWEFPSVTWEPSEQLQRKALLQELQRWAGPLPATHLRHLGEVVHTFSHIKLTYQVYGLALEGQTPVTTVPPGARWLTQEEFHTAAVSTAMKKVFRVYQGQQPGTCMGSKRSQVSSPCSRKKPRMGQQVLDNFFRSHISTDAHSLNSAAQ [E350M] | 0.00868 |
| MRKPRAAVGSGHRKQAASQEGRQKHAKNNSQAKPSACDGLARQPEEVVLQASVSSYHLFRDVAEVTAFRGSLLSWYDQEKRDLPWRRRAEDEMDLDRRAYAVWVSEVMLQQTQVATVINYMTGWMQKWPTLQDLASASLEEVNQLWAGLGYYSRGRRLQEGARKVVEELGGHMPRTAETLQQLLPGVGRYTAGAIASIAFGQATGVVDGNVARVLCRVRAIGADPSSTLVSQQLWGLAQQLVDPARPGDFNQAAMELGATVCTPQRPLCSQCPVESLCRARQRVEQEQLLASGSLSGSPDVEECAPNTGQCHLCLPPSEPWDQTLGVVNFPRKASRKPPREESSATCVLEQPGALGAQILLVQRPNSGLLAGLWEFPSVTWEPSEQLQRKALLQELQRWAGPLPATHLRHLGEVVHTFSHIKLTYQVYGLALEGQTPVTTVPPGARWLTQEEFHTAAVSTAMKKVFRVYQGQQPGTCMGSKRSQVSSPCSRKKPRMGQQVLDNFFRSHISTDAHSLNSAAQ [Y121M] | -0.933 |

— the supplement of paper PMC11908140
